According to paper PMC4573856 (Genes & Development, 2015):
Like-named read-outs stand apart in the source and are kept apart here.

T1: Dm eIF4E (residues 69-248) used for ITC (Drosophila melanogaster, UniProt P48598-2 69-248)
T1 sequence (looked up): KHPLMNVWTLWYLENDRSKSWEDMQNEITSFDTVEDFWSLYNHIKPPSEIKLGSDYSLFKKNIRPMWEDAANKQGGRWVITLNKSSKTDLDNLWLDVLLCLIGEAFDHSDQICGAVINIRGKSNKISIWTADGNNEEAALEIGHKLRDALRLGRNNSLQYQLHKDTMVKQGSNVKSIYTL

T2: His6-tagged Dm eIF4E (residues 69-248) (Drosophila melanogaster, UniProt P48598-2 69-248)
T2 sequence (looked up): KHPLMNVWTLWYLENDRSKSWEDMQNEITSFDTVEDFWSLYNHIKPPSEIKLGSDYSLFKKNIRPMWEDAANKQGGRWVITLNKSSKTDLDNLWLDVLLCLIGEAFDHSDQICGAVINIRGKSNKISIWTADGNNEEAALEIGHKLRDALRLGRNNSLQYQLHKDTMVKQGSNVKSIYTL


What was measured:
[1] = molecular target: T1, Dm eIF4E (residues 69-248) used for ITC; experiment: ITC
[2] = molecular target: T2, His6-tagged Dm eIF4E (residues 69-248); experiment: pull-down
[3] = molecular target: T2, His6-tagged Dm eIF4E (residues 69-248); experiment: pull-down; remark: listed apart in the source

Binder	Kd [1] [nM]	binding result [2]	further results
GB1-stabilized Dm Mxt peptide (residues 577-640) (domain or fragment, Drosophila melanogaster, UniProt Q9VR35 577-640, looked up, also: 15N-labelled, GB1-stabilized (GB1 fusion)) SRVSYDIEHLLYYSMSPHSWTLPTDWQKMQETAPSILRNKDLQDESQRFDGDKYLASIKTAAKR	0.5	–	–
SRVSYDIEHLLYYSMSPHSWTLPTDWQKMQETAPSILRNKDLQD (domain or fragment, Drosophila melanogaster, UniProt Q9VR35 577-620, looked up) [GB1-stabilized Dm Mxt peptide C + NC (residues 577-620)]	5	–	–
SRVSYDREHLLYYRMSPHSWTLPTDWQKMQETAPSILRNKDLQD (domain or fragment, Drosophila melanogaster, UniProt Q9VR35 577-620, looked up) [GB1-tagged Dm Mxt C + NC IS-RR mutant peptide]	–	–	binding result [3]: binds

More lines, main results first:

Kd [1] [nM]	binding result [2]	Binder	further results
–	binds	SRVSYDREHLLYYRMSPHSWTLPTDWQKMQETAPSILRNKDLQD (domain or fragment, Drosophila melanogaster, UniProt Q9VR35 577-620, looked up) [MBP-tagged Dm Mxt fragment 577-620 IS-RR mutant C-terminally fused to GB1]	–
–	binds	Dm eIF4G (residues 578-650) C-terminally fused to GB1 (domain or fragment, Drosophila melanogaster, UniProt O61380 578-650, looked up) PETTLNDKQDSTDLKVKVSAKISSIINYNEGQWSPNNPSGKKQYDREQLLQLREVKASRIQPEVKNVSILPQP	–
